Test results taken from patent US20020094546A1.

Tests used:
[1] = target: beta PDGF receptor on HR5βR cells expressing only the beta receptor (UniProt P09619); experiment: cell-based or functional assay
[2] = target: alpha PDGF receptor on 32D cells expressing only the alpha receptor (UniProt P16234); experiment: competition of unlabeled PDGF DD with ^125I-PDGF AA on 32D alpha receptor bearing cells
[3] = target: human beta PDGF receptor on human cells that carry both receptors (CCD1070 fibroblasts, MG-63 cells) (human) (UniProt P09619); experiment: two-site ELISA for alpha-beta PDGF receptor heterodimers: capture with anti-beta PDGF receptor mAb, detection with polyclonal anti-alpha PDGF receptor; MG-63 lysates after PDGF BB 10 ng/mL, 10 min
Chain of human beta PDGF receptor on human cells that carry both receptors (CCD1070 fibroblasts, MG-63 cells) (human) (P09619 33-1106): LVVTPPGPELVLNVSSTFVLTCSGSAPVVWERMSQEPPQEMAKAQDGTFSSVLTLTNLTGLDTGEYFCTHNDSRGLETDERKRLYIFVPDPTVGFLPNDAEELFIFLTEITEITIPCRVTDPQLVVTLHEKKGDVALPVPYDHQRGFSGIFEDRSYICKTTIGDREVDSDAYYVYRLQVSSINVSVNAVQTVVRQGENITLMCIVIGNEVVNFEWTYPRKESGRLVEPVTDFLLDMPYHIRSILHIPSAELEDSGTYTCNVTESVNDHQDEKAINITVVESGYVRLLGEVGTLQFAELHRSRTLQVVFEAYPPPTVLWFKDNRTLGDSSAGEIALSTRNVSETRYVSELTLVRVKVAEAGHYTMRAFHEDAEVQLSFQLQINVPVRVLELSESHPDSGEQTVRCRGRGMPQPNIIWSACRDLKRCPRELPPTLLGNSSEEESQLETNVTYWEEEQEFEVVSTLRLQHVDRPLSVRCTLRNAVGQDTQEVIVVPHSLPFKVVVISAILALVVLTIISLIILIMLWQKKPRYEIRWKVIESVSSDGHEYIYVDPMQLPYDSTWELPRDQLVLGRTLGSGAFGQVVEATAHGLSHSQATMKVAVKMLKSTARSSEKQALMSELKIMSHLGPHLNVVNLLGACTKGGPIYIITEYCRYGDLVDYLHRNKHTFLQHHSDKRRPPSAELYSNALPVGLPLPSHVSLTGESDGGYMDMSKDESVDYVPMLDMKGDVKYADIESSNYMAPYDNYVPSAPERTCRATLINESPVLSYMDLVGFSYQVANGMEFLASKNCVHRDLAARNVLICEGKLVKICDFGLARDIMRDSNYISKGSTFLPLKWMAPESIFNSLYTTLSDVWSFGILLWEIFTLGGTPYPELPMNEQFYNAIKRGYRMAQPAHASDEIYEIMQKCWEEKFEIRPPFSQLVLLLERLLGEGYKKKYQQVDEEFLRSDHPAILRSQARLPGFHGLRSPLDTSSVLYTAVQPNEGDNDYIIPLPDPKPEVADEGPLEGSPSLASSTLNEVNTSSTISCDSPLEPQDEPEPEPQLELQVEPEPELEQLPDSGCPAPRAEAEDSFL

[4] = target: human beta PDGF receptor on human cells that carry both receptors (CCD1070 fibroblasts, MG-63 cells) (human) (UniProt P09619); experiment: two-site ELISA for alpha-beta PDGF receptor heterodimers: capture with anti-beta PDGF receptor mAb, detection with polyclonal anti-alpha PDGF receptor; MG-63 lysates after PDGF DD 100 ng/mL, 10 min
PDGF AA (human) = PDGF AA (human) (UniProt P04085); experiment: cell-based or functional assay
[5] = target: PDGF DD p35 (p35 form of the 30664188 gene product, dimeric C-terminal fragment) (human); experiment: cell-based or functional assay

Chain of beta PDGF receptor on HR5βR cells expressing only the beta receptor (P09619 33-1106 limits assumed): as the sequence (P09619 33-1106) above
Chain of alpha PDGF receptor on 32D cells expressing only the alpha receptor (P16234 24-1089): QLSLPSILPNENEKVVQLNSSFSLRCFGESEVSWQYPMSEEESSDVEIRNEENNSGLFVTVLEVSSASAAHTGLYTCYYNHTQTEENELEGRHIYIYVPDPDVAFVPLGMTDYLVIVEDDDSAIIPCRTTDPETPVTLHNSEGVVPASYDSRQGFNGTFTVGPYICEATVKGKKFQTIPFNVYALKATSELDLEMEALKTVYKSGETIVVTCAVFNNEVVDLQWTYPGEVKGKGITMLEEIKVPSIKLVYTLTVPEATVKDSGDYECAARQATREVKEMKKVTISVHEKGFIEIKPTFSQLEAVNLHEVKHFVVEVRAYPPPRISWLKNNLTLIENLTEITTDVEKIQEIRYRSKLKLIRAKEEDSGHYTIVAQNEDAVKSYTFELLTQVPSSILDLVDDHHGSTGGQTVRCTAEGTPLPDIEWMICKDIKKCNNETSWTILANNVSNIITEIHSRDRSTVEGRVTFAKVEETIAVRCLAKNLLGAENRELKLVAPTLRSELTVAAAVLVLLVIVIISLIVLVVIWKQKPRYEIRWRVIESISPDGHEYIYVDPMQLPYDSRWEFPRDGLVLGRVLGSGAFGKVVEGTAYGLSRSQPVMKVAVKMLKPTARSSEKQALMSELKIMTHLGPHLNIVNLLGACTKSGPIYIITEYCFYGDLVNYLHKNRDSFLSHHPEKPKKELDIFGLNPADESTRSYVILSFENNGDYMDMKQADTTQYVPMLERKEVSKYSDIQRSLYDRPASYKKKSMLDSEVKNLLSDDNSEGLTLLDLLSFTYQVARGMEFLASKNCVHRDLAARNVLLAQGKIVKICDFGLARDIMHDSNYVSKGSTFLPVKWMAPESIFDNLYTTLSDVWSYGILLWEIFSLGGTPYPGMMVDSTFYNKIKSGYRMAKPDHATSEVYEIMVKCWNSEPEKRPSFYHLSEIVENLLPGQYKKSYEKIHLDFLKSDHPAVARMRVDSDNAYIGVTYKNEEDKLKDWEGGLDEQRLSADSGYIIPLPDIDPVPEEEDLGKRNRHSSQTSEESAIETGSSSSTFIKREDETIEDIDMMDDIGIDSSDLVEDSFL

## PDGF DD p35 (p35 form of the 30664188 gene product, dimeric C-terminal fragment) (ligand)
[1]
  lowest concentration at which beta PDGF receptor phosphorylation was detected, HR5 cells: 10 ng/mL
[2]
  highest competitor concentration tested, no competition seen: > 250 nM

## human alpha PDGF receptor on human cells that carry both receptors (CCD1070 fibroblasts, MG-63 cells) (from UniProt P16234 24-1089)
[3]
  Increase mODmin^-1 (650) (mODmin^-1 (650)): 2.3
[4]
  Increase mODmin^-1 (650) (mODmin^-1 (650)): 12.5

## soluble beta PDGF receptor-IgFc fusion (R&D Systems) (from UniProt P09619 33-530)
PDGF AA (human)
  BrdU incorporation OD-blank, CCD1070 cells, AA + betaR Fc (AA alone 0.2705; + MOPC21 0.227): 0.248 OD-blank
  BrdU incorporation OD-blank, NIH/3T3 cells, AA + betaR Fc (AA alone 0.931; + MOPC21 0.992): 0.942 OD-blank
[5]
  BrdU incorporation OD-blank, CCD1070 cells, 3066 + betaR Fc (3066 alone 0.501; + MOPC21 0.456; starve 0.0303): 0.324 OD-blank
  BrdU incorporation OD-blank, NIH/3T3 cells, 3066 + betaR Fc (3066 alone 0.902; + MOPC21 0.892; starve 0.0055): 0.0365 OD-blank
